Measured values taken from patent US6140466, “Zinc finger protein derivatives and methods therefor” (The Scripps Research Institute).

Assays:
Zif268 variant C7 = Zif268 variant C7 (synthetic (Zif268 variant, mouse), UniProt P08046); assay: SPR; 5-fold slower dissociation; Kd in FIG. 11 only
Zif268 fingers 1-3 = Zif268 fingers 1-3 (Mus musculus, UniProt P08046 SEQ:1-91); assay: SPR; zinc buffer (90 uM ZnCl2, 5 mM DTT); Kd from kon/koff
MBP-C7 = MBP-C7 (synthetic (Zif268 variant, mouse), UniProt P08046); assay: EMSA; 0.1 mM ZnCl2, RT
TFIIIA zf1-3 = TFIIIA zf1-3 (UniProt P03001 P03001:33-123); assay: EMSA; ambient temperature; complete 23 bp sequence not given; settings: tags: first three zinc fingers of TFIIIA; label: 32P
Text: An experiment was designed to determine whether the binding of this polypeptide to its recognition sequence, placed close to an active RNA polymerase promoter, would inhibit the activity of that promoter in vitro. The following experiments were done to provide such a test system. A 23 bp oligonucleotide (Liao, et al., 1992, supra) containing the 13 bp recognition sequence for zf1–3 was cloned into the polylinker region of plasmid pBluescript SK+ (Stratagene, La Jolla, Calif.), near the promoter sequence for T7 RNA polymerase. The parent plasmid was digested with the restriction enzyme EcoRV and, after dephosphorylation with calf intestinal alkaline phosphatase, the phosphorylated 23 bp oligonucleotide was inserted by ligation with T4 DNA ligase. The ligation product was used for transformation of DH5α *E. coli* cells. Clones harboring 23 bp inserts were identified by restriction digestion of miniprep DNA. The success of cloning was also verified by DNA sequence analysis. The DNA binding activity of the preparation of recombinant zf1–3 was also determined by gel mobility shift analysis with a 56 bp radiolabeled EcoRI/XhoI restriction fragment derived from the cone containing the binding site for zf1–3 and with the radiolabeled 23 bp oligonucleotide. Gel shift assays were done as described (Liao, et al., supra; Fried, et al., *Nucl. Acids., Res.,* 9:6505, 1981). […]

(C7 finger)x3 = (C7 finger)x3 (synthetic (Zif268 variant)); assay: SPR; settings: hairpin
Sequence of (C7 finger)x3 (synthetic (Zif268 variant)) (chain, as listed by the source): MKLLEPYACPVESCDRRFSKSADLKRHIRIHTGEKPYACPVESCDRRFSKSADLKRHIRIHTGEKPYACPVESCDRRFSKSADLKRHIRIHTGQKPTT

Sequence of TFIIIA zf1-3 (P03001 33-123, one chain of several): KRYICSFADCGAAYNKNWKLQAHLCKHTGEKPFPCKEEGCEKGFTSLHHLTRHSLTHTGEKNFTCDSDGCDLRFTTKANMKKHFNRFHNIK

Binder: CCTGCGTGGGCGCCCTTTTGGGCGCCCACGCAGG (structured_DNA) [Z268N consensus hairpin]
- binding signal (Zif268 variant C7): 13 fold tighter than Zif268
- Kd (Zif268 fingers 1-3): 6.5 nM

B1: C7 site probe (dsDNA)
DNA 1: GATGTATGTAGCGTGGGCGTAAGTAATGC
DNA 2: GCATTACTTACGCCCACGCTACATACATC
- Kd (MBP-C7): 31.8 nM

B2: zf1-3 binding site oligo (23 bp containing 13 bp site) (dsDNA)
DNA 1: TGGATGGGAGACC
DNA 2: GGTCTCCCATCCA
- binding result (TFIIIA zf1-3): binds

Binder: CCTCGCCGCCGCGGGTTTTCCCGCGCCCCCGAGG (structured_DNA) [GCG-GCG-GCG hairpin]
- Kd ((C7 finger)x3): 9 nM
